According to patent US20040170960A1:

Target: murine GM-CSF receptor (murine) (UniProt Q00941)
Experiment: cell-based or functional assay

Sequence of UniProt Q00941 (Q00941 30-388, chain 1 of 2): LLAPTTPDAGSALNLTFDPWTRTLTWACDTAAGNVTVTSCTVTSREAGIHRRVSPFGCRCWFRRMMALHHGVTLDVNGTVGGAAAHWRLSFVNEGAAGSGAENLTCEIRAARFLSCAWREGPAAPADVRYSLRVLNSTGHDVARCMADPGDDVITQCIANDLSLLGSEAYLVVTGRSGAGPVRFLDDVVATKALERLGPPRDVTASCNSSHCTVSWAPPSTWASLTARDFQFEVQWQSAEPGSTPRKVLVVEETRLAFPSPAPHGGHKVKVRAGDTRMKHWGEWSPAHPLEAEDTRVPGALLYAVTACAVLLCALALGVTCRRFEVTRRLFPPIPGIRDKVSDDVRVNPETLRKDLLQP
Sequence of UniProt Q00941 (P26955 23-896, chain 2 of 2, further chain): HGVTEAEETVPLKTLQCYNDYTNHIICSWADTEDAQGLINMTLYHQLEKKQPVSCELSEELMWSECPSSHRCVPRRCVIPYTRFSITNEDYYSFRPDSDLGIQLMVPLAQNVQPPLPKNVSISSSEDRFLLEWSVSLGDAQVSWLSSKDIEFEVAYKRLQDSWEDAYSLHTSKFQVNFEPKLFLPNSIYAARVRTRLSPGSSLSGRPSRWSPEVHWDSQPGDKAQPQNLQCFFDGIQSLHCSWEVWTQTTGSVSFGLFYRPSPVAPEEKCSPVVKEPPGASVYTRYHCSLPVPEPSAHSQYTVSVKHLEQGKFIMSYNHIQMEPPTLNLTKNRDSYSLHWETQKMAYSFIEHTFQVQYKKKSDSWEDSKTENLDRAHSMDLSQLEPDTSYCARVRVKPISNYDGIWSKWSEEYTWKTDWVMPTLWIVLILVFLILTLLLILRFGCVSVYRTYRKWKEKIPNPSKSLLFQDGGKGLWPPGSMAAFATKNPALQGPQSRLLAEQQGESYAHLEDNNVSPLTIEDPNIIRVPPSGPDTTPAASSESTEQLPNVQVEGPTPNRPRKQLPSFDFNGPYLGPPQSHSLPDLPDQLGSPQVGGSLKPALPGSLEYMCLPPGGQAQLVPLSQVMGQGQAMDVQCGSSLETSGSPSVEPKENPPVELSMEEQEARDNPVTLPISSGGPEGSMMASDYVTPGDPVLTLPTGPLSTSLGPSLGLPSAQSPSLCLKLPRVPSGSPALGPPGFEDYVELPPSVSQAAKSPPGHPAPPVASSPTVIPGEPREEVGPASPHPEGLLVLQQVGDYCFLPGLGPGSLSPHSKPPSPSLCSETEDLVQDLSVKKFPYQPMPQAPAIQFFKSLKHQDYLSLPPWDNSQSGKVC

“murine GM-CSF fused to the S. cerevesiae Gas1 GPI modification signal sequence (from UniProt P01587 18-141; P22146 474-559) (other; the values are: proliferation increase vs soluble GM-CSF)” was tested, and the proliferation of FDC-P1 cells (Biotrak BrdU cell proliferation ELISA) was 25%.
